Source: patent publication US20240043489A1, “Cytokine Prodrugs Comprising a Cleavable Linker” (Trutino Biosciences Inc., priority 2020, published 2024)
Substitutions are numbered along the chain they refer to. In names and notes the source's numbering stands. Entries after “also recorded” stand apart in the source; their conditions may differ. Values belong to the molecule of their own block, whether it stands above or below them. Where no end group is shown, it is not given here. The star is where a group is joined. EDANS = O=S(=O)(O)c1cccc2c(NCCN*)cccc12

Assays:
fibronectin = assay: Retention linker peptide binding to fibronectin-coated beads; conditions: peptides 20 uM
Experimental: (§1) A series of peptides comprising an MMP cleavable site with or without the addition of a tumor retention sequence were synthesized and conjugated to the fluorophore EDANS (5-((2-Aminoethyl)amino)naphthalene-1-sulfonic acid) (custom synthesis, ThermoFisher). […] These peptides were then tested for their ability to bind ECM proteins such as heparin, fibronectin and collagen which are found in abundance in the tumor stroma.
(§2) For fibronectin and collagen binding assays, streptavidin coupled magnetic beads (Mag Sepharose, Cytiva and Dynabeads, ThermoFisher, respectively) were first incubated with biotin-labelled fibronectin (Cytoskeleton) or biotin-labelled collagen IV (Prospec) for 1 Hr with gentle shaking. Following multiple washes, the ECM-coated beads were then incubated with Edans Peptides (20 uM) for 2 hours at room temperature with shaking in neutral or acidic binding buffer. Beads were then washed and resuspended in 100 uL of binding buffer in a black 96-well plate. Peptide binding was quantified by measuring the fluorescence of samples using excitation/emission spectra of EDANS (Ex 340/Em 490).

collagen IV = assay: Retention linker peptide binding to collagen IV-coated beads; conditions: peptides 20 uM, 2 hours
Experimental: as §1, §2

[1] = tested on: Heparan sulfate proteoglycans; conditions: DTx protein derived; Note 1; cited from earlier work
[2] = target: collagen (agarose cross-linked to collagen, Sigma); assay: pulldown on collagen-agarose beads, anti-mouse IL-2 immunoblot, band quantified with iBright
[3] = target: collagen (agarose cross-linked to collagen, Sigma); assay: pulldown on collagen-agarose beads, anti-mouse IL-2 immunoblot, bound fraction normalized to Construct B
[4] = target: collagen cross-linked to agarose (Sigma); assay: pulldown with collagen-agarose beads, anti-mouse IL-2 immunoblot quantified with iBright imaging system
MC38 tumor = assay: Intra-tumoral injection in syngeneic MC38 colorectal cancer model; type: in vivo, mice
Experimental: Tumors and body weights were measured twice a week for the duration of the study. Tumor volumes were calculated using the following equation: (longest diameter*shortest diameter^2)/2.

CTLL-2 cells = assay: CTLL-2 proliferation assay (MTT); type: cell-based
Experimental: (§3) Recombinant MMP9 and/or MMP2 (R&D Systems) was first activated with p-aminophenylmercuric acetate and this activated protease or equivalent amount of activating solution without the protease was used to digest or mock digest the fusion protein for 1 hr, 2 hr, 4 hr and overnight (18-22 hr) at 37 C. Cleavage assays are set up in TCNB buffer: 50 mM Tris, 10 mM CaCl2), 150 mM NaCl, 0.05% Brij-35 (w/v), pH 7.5. Digested protein was aliquoted and stored at −80° C. prior to testing. Aliquots of digests were subsequently analyzed by SDS-PAGE followed by Western blotting to evaluate the extent of cleavage. Digests were also assessed in functional assays such as CTLL-2 proliferation and HEK-Blue Interleukin reporter assays. As shown in FIGS. 2A-E, essentially complete cleavage by MMP9 protease of the fusion proteins with functional site is seen after overnight incubation. In contrast, proteins containing a scrambled MMP cleavage site are not cut (FIG. 2E).
IL-2 activity was measured using either CTLL-2 cells (ATCC) or the reporter cell line HEK Blue IL2 (Invivogen, San Diego). In brief, for the CTLL-2 assay a titration of untreated and digested samples is added to 40 000 CTLL-2 cells per well in 100 ul medium in a 96-well plate and incubated at 37C in 5% CO2 for 18-22 hr. At the end of this period, 50ug/well Thiazolyl Blue Tetrazolium Bromide (MTT) (Sigma-Aldrich) was added and the plate was incubated for 5 hr at 37C in 5% CO2. Cells were lysed with 100 µl/well 10% SDS (Sigma) acidified with HCl, incubated at 37C for 4 hr, and absorbance was read at 570 nm. Recombinant human or mouse IL-2 (Peprotech and R&D systems respectively) was used as a positive control. FIGS. 3A-B, 3K-L and 3N-P show examples of untreated and digested fusion proteins evaluated in CTLL-2 proliferation assay.

MMP9 = target: T1, MMP9 (Mus musculus, UniProt P41245); assay: Cleavage of fusion protein by MMP9 protease (SDS-PAGE / Western blot); type: biochemical
T1 construct: purchased R&D Systems
Experimental: as §3
Untreated and digested fusion proteins were evaluated for cleavage products by Western blot. The following monoclonal antibodies were used: rat anti-mouse IL-2 antibody (JES6-1A12; ThermoFisher), goat anti-mouse IL-2 polyclonal antibody (AF-402-NA; R&D systems), mouse anti-6xHis monoclonal antibody (MA1-21315, ThermoFisher), Anti-mIgG Fc HRP conjugated (ThermoFisher cat #A16084), and Anti-human IL2 antibody (Invitrogen, cat #MA5-17097, mouse IgG1). Detection was performed using either a goat anti-rat HRP-conjugated antibody, Donkey Anti-goat HRP-conjugated antibody or Goat Anti-mouse HIRP conjugated (Jackson Immuno Research, West Grove, PA) and developed using the SuperSignal West Femto Maximum sensitivity detection reagent (ThermoFisher) following the manufacturer's recommendations.

EMT6 tumor = conditions: mouse, in vivo, iv, 8 mg/kg
Excerpt: We assessed the levels of IL-2 fusion proteins present in tumors in vivo by utilizing fluorescently labelled proteins and real-time whole-body imaging. Non-cleavable Construct GGG and Construct DD were conjugated to Dylight 650 probe according to the manufacturer's protocol (Dylight 650 Antibody labeling kit, ThermoFisher). […] BALB/c mice were subcutaneously inoculated with EMT6 breast cancer syngeneic model and when the average tumor volume reached 240 mm^3, animals were randomized into 3 groups based on tumor volumes (n=2 mice per treatment group).
Following a single dose of the labeled IL-2 fusion proteins to tumor-bearing mice, fluorescent images (excitation 640/emission 680 consistent with Dylight 650 probe ex/em spectra) were captured over 96 hrs on an IVIS system (PerkinElmer, IVIS Lumina Series III) and are shown in FIG. 15A. The fluorescence intensity in tumor area was quantified across the groups, average background tumor fluorescence (group 1) was subtracted from group 2 and 3 values at each time-point, and data was normalized to the initial fluorescence intensity of same amount of each labeled protein.

T1 sequence (P41245 108-730): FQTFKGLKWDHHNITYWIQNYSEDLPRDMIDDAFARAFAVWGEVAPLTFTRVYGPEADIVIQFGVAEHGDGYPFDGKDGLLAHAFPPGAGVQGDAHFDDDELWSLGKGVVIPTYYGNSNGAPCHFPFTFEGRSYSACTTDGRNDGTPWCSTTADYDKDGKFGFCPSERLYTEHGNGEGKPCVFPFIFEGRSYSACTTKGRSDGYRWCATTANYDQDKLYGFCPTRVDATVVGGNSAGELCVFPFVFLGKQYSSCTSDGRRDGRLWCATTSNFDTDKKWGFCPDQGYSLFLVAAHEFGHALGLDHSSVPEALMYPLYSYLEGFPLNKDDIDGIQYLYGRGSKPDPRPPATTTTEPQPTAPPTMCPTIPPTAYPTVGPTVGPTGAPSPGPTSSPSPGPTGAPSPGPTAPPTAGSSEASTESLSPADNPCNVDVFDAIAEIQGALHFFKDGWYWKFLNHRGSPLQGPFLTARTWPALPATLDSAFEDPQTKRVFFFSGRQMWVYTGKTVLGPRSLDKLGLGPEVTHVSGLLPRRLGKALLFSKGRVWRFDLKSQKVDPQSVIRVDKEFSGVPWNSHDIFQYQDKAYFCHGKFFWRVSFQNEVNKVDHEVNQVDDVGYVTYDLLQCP

Molecule: 639 (NGRKIRMRCRAIDGD) [Construct 639]
- binds to HSGP, affinity [1]: binds to HSGP with high affinity (DTx protein)

Molecule: 640 (DVIRDKTKTKIESLK) [Construct 640]
- binds to HSGP, affinity [1]: binds to HSGP with low affinity (DTx protein)

B1: Construct B (Fc fusion)
chain: APTSSSTSSSTAEAQQQQQQQQQQQQHLEQLLMDLQELLSRMENYRNLKLPRMLTFKFYLPKQATELKDLQCLEDELGPLRHVLDLTQSKSFQLEDAENFISNIRVTVVKLKGSDNTFECQFDDESATVVDFLRRWIAFCQSIISTSPQSGGGGSGGGGGPLGVRGGGGGSGGGGSELCLYDPPEVPNATFKALSYKNGTILNCECKRGFRRLKELVYMRCLGNSWSSNCQCTSNSHDKSRKQVTAQLEHQKEQQTTTDMQKPTQSMHQENLTGHCREPPPWKHEDSKRIYHFVEGQSVHYECIPGYKALQRGPAISICKMKCGKTGWTQPQLTCVDEREHHRFLASEESQGSRNSSPESETSCPITTTDFPQPTETTAMTETFVLTMEYKGCKPCICTVPEVSSVFIFPPKPKDVLTITLTPKVTCVVVDISKDDPEVQFSWFVDDVEVHTAQTQPREEQFNSTFRSVSELPIMHQDWLNGKEFKCRVNSAAFPAPIEKTISKTKGRPKAPQVYTIPPPKEQMAKDKVSLTCMITDFFPEDITVEWQWNGQPAENYKNTQPIMDTDGSYFVYSKLNVQKSNWEAGNTFTCSVLHEGLHNHHTEKSLSHSPGK
- Bound [2]: 2310
- Bound (% input) [2]: 0.3%
- Normalized (fold (relative to Construct B)) [3]: 1

B2: Construct GG (Fc fusion)
chain: B1 chain with G153K, G154L, S155W, G156V, G157L, G158P, G159K
- Bound [2]: 5190
- Bound (% input) [2]: 0.7%
- Normalized (fold (relative to Construct B)) [3]: 2.5

B4: Construct II (Fc fusion)
chain: B1 chain with G151L, G152H, G153E, G154R, S155H, G156L, G157N, G158N, G159N
- Bound [2]: 2280
- Bound (% input) [2]: 0.4%
- Normalized (fold (relative to Construct B)) [3]: 1.4

B5: Construct GG: m IL2-SGG-KLWVLPK-MMPcs1-2x(G4S)-mIL2Ra(1-215)-mu IgG1 Fc (Fc fusion)
chain: B1 chain with G153K, G154L, S155W, G156V, G157L, G158P, G159K
- fraction bound (% of input) [4]: < 1 % of input

B6: Construct A: SEQ ID NO 100: mIL2-2x(SG4)-MMPcs1-2x(G4S)-IL2Ralpha-6His (protein)
chain: APTSSSTSSSTAEAQQQQQQQQQQQQHLEQLLMDLQELLSRMENYRNLKLPRMLTFKFYLPKQATELKDLQCLEDELGPLRHVLDLTQSKSFQLEDAENFISNIRVTVVKLKGSDNTFECQFDDESATVVDFLRRWIAFCQSIISTSPQSGGGGSGGGGGPLGVRGGGGGSGGGGSELCLYDPPEVPNATFKALSYKNGTILNCECKRGFRRLKELVYMRCLGNSWSSNCQCTSNSHDKSRKQVTAQLEHQKEQQTTTDMQKPTQSMHQENLTGHCREPPPWKHEDSKRIYHFVEGQSVHYECIPGYKALQRGPAISICKMKCGKTGWTQPQLTCVDEREHHRFLASEESQGSRNSSPESETSCPITTTDFPQPTETTAMTETFVLTMEYKHHHHHH
- anti-tumor activity (MC38 tumor; daily intra-tumoral injection, 10 injections, Construct A 70ug/day, r hIL2 5 ug/day): substantially inhibited tumor growth; also recorded: complete elimination of tumor
- tumor establishment after re-challenge with MC38 cells (MC38 tumor; re-inoculated on Day 40, a month after re-challenge): Tumor growth was rejected; also recorded: no tumor mass was established
- greater activity of MMP-9 treated than untreated construct (EC50 comparison) (CTLL-2 cells; CTLL-2 proliferation): 10 fold
- CTLL-2 cell proliferation, MMP-9 treated construct (CTLL-2 cells; cleaved by MMP-9): stimulates CTLL-2 cell proliferation in a dose dependent manner
- time at which cleavage product was detectable (MMP9; +MMP-9 digestion, Western blot): 1 h
- full-length cytokine prodrug remaining (MMP9; overnight +MMP time point): substantially undetectable

B7: Construct DD: SEQ ID NO 814: m IL2-2x(GHHPH)-MMPscr-2x(G4S)-mIL2Ra(1-215)-mu IgG1 Fc (protein)
chain: APTSSSTSSSTAEAQQQQQQQQQQQQHLEQLLMDLQELLSRMENYRNLKLPRMLTFKFYLPKQATELKDLQCLEDELGPLRHVLDLTQSKSFQLEDAENFISNIRVTVVKLKGSDNTFECQFDDESATVVDFLRRWIAFCQSIISTSPQGHHPHGHHPHGVRLGPGGGGGSGGGGSELCLYDPPEVPNATFKALSYKNGTILNCECKRGFRRLKELVYMRCLGNSWSSNCQCTSNSHDKSRKQVTAQLEHQKEQQTTTDMQKPTQSMHQENLTGHCREPPPWKHEDSKRIYHFVEGQSVHYECIPGYKALQRGPAISICKMKCGKTGWTQPQLTCVDEREHHRFLASEESQGSRNSSPESETSCPITTTDFPQPTETTAMTETFVLTMEYKGCKPCICTVPEVSSVFIFPPKPKDVLTITLTPKVTCVVVDISKDDPEVQFSWFVDDVEVHTAQTQPREEQFNSTFRSVSELPIMHQDWLNGKEFKCRVNSAAFPAPIEKTISKTKGRPKAPQVYTIPPPKEQMAKDKVSLTCMITDFFPEDITVEWQWNGQPAENYKNTQPIMDTDGSYFVYSKLNVQKSNWEAGNTFTCSVLHEGLHNHHTEKSLSHSPGK
- tumor-associated fluorescence relative to Construct GGG (EMT6 tumor): roughly 2 fold

Now from value to molecule:

- binding to fibronectin at pH6 vs pH 7.5 (fibronectin): enhanced binding at pH6
- binding to fibronectin (fibronectin; 2 hours): able to bind fibronectin
Molecule: peptide 13: EDANS-conjugated MMP linker peptide with GPLGVRG site; retention motif target pH dependent fibronectin (GGGWSHWGPLGVRG-{EDANS}; also: EDANS fluorophore conjugated at 3' end)

- binding to collagen IV (collagen IV): strongly binds collagen IV
Molecule: peptide 14: EDANS-conjugated MMP linker peptide with GPLGVRG site; retention motif target Collagen IV (KLWVLPKGPLGVRG-{EDANS}; also: EDANS fluorophore conjugated at 3' end)

- binding to collagen IV (collagen IV): binds to a lesser extent
Molecule: peptide 15: EDANS-conjugated MMP linker peptide GGGSG...; retention motif target Collagen I (GGGSGLHERHLNNN-{EDANS}; also: EDANS fluorophore conjugated at 3' end)

- fraction bound (% of input) [4]: < 1 % of input
B3: Construct II: m IL2-…-MMPcs1-2x(G4S)-mIL2Ra(1-215)-mu IgG1 Fc (Fc fusion)
chain: B1 chain with G151L, G152H, G153E, G154R, S155H, G156L, G157N, G158N, G159N
